Our source for the minimal concentration of droplet formation values is publication PMC10519987.

The target of test [1] is carboxy-terminal domain of Saccharomyces cerevisiae RNA polymerase II subunit RPB1 (yCTD) (Saccharomyces cerevisiae). The experiment in a line: dynamic light scattering + microscopy; tag-free CTD alone, no crowding agents; 25 mM HEPES, 1.0 mM TCEP, pH 7.4 (also pH 6.2), 50-1000 mM NaCl, rising temperature; self-coacervation into droplets.
Test [2] concerns the target carboxy-terminal domain of human RNA polymerase II subunit RPB1 (hCTD) (human) (UniProt P24928). The description is as above.

With “carboxy-terminal domain of Saccharomyces cerevisiae RNA polymerase II subunit RPB1 (yCTD) (domain or fragment)”, the minimal concentration of droplet formation in test [1] is 100 µM.

For the substance “carboxy-terminal domain of human RNA polymerase II subunit RPB1 (hCTD) (from UniProt P24928 1593-1970) (domain or fragment)”, the minimal concentration of droplet formation in test [2] is 25 µM.
